Measured values reported in patent US20130045219A1 (UCB, published 2013).

What was measured:
[1] = molecular target: T1, soluble human CD154 protein (extracellular domain) (human, UniProt P29965 116-261); test: Biacore (SPR): antibody or fragment captured on immobilized anti-human IgG (Fc- or Fab'-specific) F(ab')2, recombinant extracellular domain of human CD154 titrated over it (Example 4)
T1 construct: also called sCD154; recombinant extracellular domain of human CD154
T1 sequence: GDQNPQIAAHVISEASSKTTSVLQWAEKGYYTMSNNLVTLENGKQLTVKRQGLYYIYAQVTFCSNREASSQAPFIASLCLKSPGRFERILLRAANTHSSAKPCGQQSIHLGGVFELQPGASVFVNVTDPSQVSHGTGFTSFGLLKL
Protocol: Catalogue Number: BR-1001-88, Biacore AB, Uppsala, Sweden. Buffer stored at 4° C. Immobilization buffer is Acetate 5.0 (being 10 mM sodium acetate pH 5.0). Catalogue number: BR-1003-51, Biacore AB, Uppsala, Sweden. Buffer stored at 4° C. Ligand capture: Affinipure F(ab′)₂ fragment goat anti-human IgG, Fab′ fragment specific (Catalogue number: 109-006-097) or Fc fragment specific (Catalogue number: 109-006-098), Jackson ImmunoResearch Inc (Pennsylvania, USA). Reagents stored at 4° C. […] Analyte: Recombinant extracellular domain of human CD154. Material was prepared at 2 mg/mL (40 μM) in phosphate-buffered saline, stored at 4° C., and diluted in HBE-EP running buffer for the assays. […] Regeneration Solution: 40 mM HCl prepared by dilution with distilled water from an 11.6 M stock solution (BDH, Poole, England. Catalogue number: 101254H). 5 mM NaOH prepared by dilution with distilled water from a 50 mM stock solution. Catalogue number: BR-1003-58, Biacore AB, Uppsala, Sweden. Assay Method: BIA (Biamolecular Interaction Analysis) was performed using a Biacore® 3000 (Biacore AB). Affinipure F(ab′)₂ fragment goat anti-human IgG, Fc- or Fab′-fragment specific (Jackson ImmunoResearch) were immobilized on a CM5 Sensor Chip via amine coupling chemistry to a capture level of ≈6000 response units (RUs). HBS-EP buffer (10 mM HEPES pH 7.4, 0.15 M NaCl, 3 mM EDTA, 0.005% Surfactant P20, Biacore AB) was used as the running buffer with a flow rate of 10 μl/min. Anti-CD154 antibodies or Fab fragments were used at concentrations such that, once captured by the immobilized anti-human IgG-Fc (or anti-human IgG Fab′) surface, gave a signal of ≈200 RUs. Human CD154 was titrated over the captured antibody, at various concentrations. 90 μL of CD154 was injected over the surface (association phase), followed by a 240 second dissociation phase, all at a flow rate of 30 μl/min. […] Background subtraction binding curves were analyzed using the BIAevaluation software (version 3.2) following standard procedures. Kinetic parameters were determined from the fitting algorithm.

CD40:sCD154 complex = molecular target: T2, CD40:sCD154 complex (human, UniProt P25942 21-193, limits assumed); test: Biacore (SPR): CD40hFc captured, ECD bound, then buffer or Fab injected; concentration not given (Example 10)
T2 construct: also called CD40:CD154 complex; not shown: human Fc (hFc)
T2 sequence (P25942 21-193 limits assumed, one chain of several): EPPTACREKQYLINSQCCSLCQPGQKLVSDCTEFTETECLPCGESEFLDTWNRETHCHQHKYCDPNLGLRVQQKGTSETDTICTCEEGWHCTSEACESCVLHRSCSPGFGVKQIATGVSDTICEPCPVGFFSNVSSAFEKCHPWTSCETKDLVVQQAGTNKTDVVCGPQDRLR

[2] = molecular target: T3, CD154 expressed on D1.1 Jurkat cells (UniProt P29965 1-261, limits assumed); test: flow cytometry competition binding assay: serially diluted antibody against biotinylated 342 Fab on CD154-expressing D1.1 Jurkat cells, streptavidin-R-phycoerythrin detection (Example 6)
T3 construct: whole, on cells; D1.1 is a human Jurkat subclone; also called CD154-expressing D1.1 cells; CD40L
T3 sequence (looked up): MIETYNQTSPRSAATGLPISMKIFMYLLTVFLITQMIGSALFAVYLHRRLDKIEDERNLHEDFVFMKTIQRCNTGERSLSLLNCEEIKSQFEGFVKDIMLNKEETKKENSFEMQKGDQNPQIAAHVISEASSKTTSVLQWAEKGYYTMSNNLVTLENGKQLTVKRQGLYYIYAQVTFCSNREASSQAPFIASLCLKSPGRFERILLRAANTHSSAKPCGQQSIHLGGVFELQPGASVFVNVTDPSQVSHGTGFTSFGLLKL
Protocol: A flow cytometry-based assay was used to assess the binding of anti-CD154 antibody to CD154-expressing D1.1 cells. D1.1 Jurkat cells (American Type Culture Collection) were maintained in RPMI 1640 medium (Gibco, 31870-025) containing 10% (v/v) fetal calf serum (FCS), 2 mM glutamine (BioWhittaker, 17-605E) and […] (Mediatech, 30002107). […] The cells were washed three times in FACS buffer with centrifugation at 290×g for 3 minutes in between washes. A 1:500 dilution of streptavadin-R-phycoerythrin conjugate (Jackson Immunoresearch, 016-110-084) in […] FACS buffer was added and the cells were incubated for one hour at 4° C. The cells were washed once and fixed in PBS with 3% formaldehyde at room temperature for 10 minutes. The cells were resuspended in FACS buffer and run on a FacsCalibur (BD). The values for geometric mean fluorescence (FL2) were assessed in all cases.

Myc-tagged CD154 = molecular target: T4, Myc-tagged CD154 (UniProt P29965 116-261, limits assumed); test: ELISA: Myc-tagged CD154 captured on anti-Myc antibody 9E10, biotin 342 Fab' titrated, streptavidin-HRP detection (Example 14)
T4 construct: Captured on the ELISA plate by anti-Myc antibody 9E10; The order of tag and CD154 is not known; also called CD40L; not shown: Myc tag
T4 sequence (looked up): T1 sequence
Protocol: In this assay, anti-Myc antibody 9E10 was coated onto an ELISA plate. Myc-tagged CD154 was captured by this antibody. […] The plate was washed and the amount of biotinylated 5c8 Fab bound was determined using streptavidin HRP as a secondary. The signal was graphed and fit using a either a one site binding hyperbola or a two site binding hyperbola curve fit in Prism software (Graph Pad).
A titration of biotin 5c8 Fab′ on CD154 to determine the appropriate concentration for cross-blocking analysis was also performed (FIG. 29B).

[3] = molecular target: T3, CD154 expressed on D1.1 Jurkat cells; test: flow cytometry: inhibition of the binding of hCD40-mFc-PE to CD154-expressing D1.1 Jurkat cells by serially diluted antibody (Example 5)
Protocol: A flow cytometry-based assay was used to assess the binding of labeled CD40 to CD154-expressing D1.1 cells. D1.1 Jurkat cells (American Type Culture Collection) were maintained in RPMI 1640 medium (Gibco, 31870-025)) containing 10% (v/v) fetal calf serum (FCS), 2 mM glutamine (Invitrogen, 23030024), 1 mM sodium pyruvate (Invitrogen, 11360-039), 1% (v/v) D-(+)-glucose (Sigma, G8769) & 10 mM HEPES (Sigma, H0887). At time of assay, 100,000 D1.1 cells were incubated in 100 μL RPMI 1640 medium+10% FCS, in the presence or absence of serially diluted anti-CD154 antibody for 15 minutes at room temperature. 5 μL of a 1:75 dilution of hCD40-mFc-PE (Alexis Corp, ANC-504-050) was then added and incubated for a further 30 minutes at room temperature. After washing twice in phosphate-buffered saline (PBS) containing 1% (w/v) bovine serum albumin (BSA fraction V, Serologicals Proteins Inc, 81-068-5) and 0.02% (w/v) sodium azide (BDH, 103692K), cells were resuspended in 200 μL PBS/1% BSA/0.02% sodium azide and flow cytometry performed on a Becton Dickinson FACScan. The values for geometric mean fluorescence (FL2) were assessed in all cases.

[4] = molecular target: T3, CD154 expressed on D1.1 Jurkat cells; test: cell-based or functional assay

B1: 342 Fab′ (Fab, V domains shown)
VH: EVQLVESGGGLVQPGGSLRLSCAVSGFSSTNYHVHWVRQAPGKGLEWMGVIWGDGDTSYNSVLKSRFTISRDTSKNTVYLQMNSLRAEDTAVYYCARQLTHYYVLAAWGQGTLVTVSS
VL: DIQMTQSPSSLSASVGDRVTITCRASEDLYYNLAWYQRKPGKAPKLLIYDTYRLADGVPSRFSGSGSGTDYTLTISSLQPEDFASYYCQQYYKFPFTFGQGTKVEIKR
Question: Which results are given for B1?
Answer: Kd [1]: 28 pM; binding result (CD40:sCD154 complex): no binding; IC50 [2]: 24 pM; EC50 (read off the curve) (Myc-tagged CD154): ~100 pM; IC50 [3]: 0.012 µg/mL; IC50 of inhibition of ICAM-1 (CD54) upregulation on CD40-expressing Ramos B cells co-cultured with CD154-expressing D1.1 Jurkat cells [4]: 0.04 µg/mL
